Assay results taken from PMC10183829 (2023).

B1: mCh-HsC53 [human] / GST-ATG8A [Arabidopsis thaliana] (parent complex)
chain 1: MEDHQHVPIDIQTSKLLDWLVDRRHCSLKWQSLVLTIREKINAAIQDMPESEEIAQLLSGSYIHYFHCLRILDLLKGTEASTKNIFGRYSSQRMKDWQEIIALYEKDNTYLVELSSLLVRNVNYEIPSLKKQIAKCQQLQQEYSRKEEECQAGAAEMREQFYHSCKQYGITGENVRGELLALVKDLPSQLAEIGAAAQQSLGEAIDVYQASVGFVCESPTEQVLPMLRFVQKRGNSTVYEWRTGTEPSVVERPHLEELPEQVAEDAIDWGDFGVEAVSEGTDSGISAEAAGIDWGIFPESDSKDPGGDGIDWGDDAVALQITVLEAGTQAPEGVARGPDALTLLEYTETRNQFLDELMELEIFLAQRAVELSEEADVLSVSQFQLAPAILQGQTKEKMVTMVSVLEDLIGKLTSLQLQHLFMILASPRYVDRVTEFLQQKLKQSQLLALKKELMVQKQQEALEEQAALEPKLDLLLEKTKELQKLIEADISKRYSGRPVNLMGTSL
chain 2: MAKSSFKISNPLEARMSESSRIREKYPDRIPVIVEKAGQSDVPDIDKKKYLVPADLTVGQFVYVVRKRIKLGAEKAIFVFVKNTLPPTAALMSAIYEEHKDEDGFLYMTYSGENTFG

Variants of: B1
Assay: microscopy-based protein-protein interaction assay (on-bead binding, confocal); 1 μM C53 protein; glutathione-sepharose beads with GST-ATG8A; read off a plot

**Q.** For chain 1 MEDHQHVPIDIQTSKLLDWLVDRRHCSLKWQSLVLTIREKINAAIQDMPESEEIAQLLSGSYIHYFHCLRILDLLKGTEASTKNIFGRYSSQRMKDWQEIIALYEKDNTYLVELSSLLVRNVNYEIPSLKKQIAKCQQLQQEYSRKEEECQAGAAEMREQFYHSCKQYGITGENVRGELLALVKDLPSQLAEIGAAAQQSLGEAIDVYQASVGFVCESPTEQVLPMLRFVQKRGNSTVYEWRTGTEPSVVERPHLEELPEQVAEDAIDAGDFGVEAVSEGTDSGISAEAAGIDAGIFPESDSKDPGGDGIDAGDDAVALQITVLEAGTQAPEGVARGPDALTLLEYTETRNQFLDELMELEIFLAQRAVELSEEADVLSVSQFQLAPAILQGQTKEKMVTMVSVLEDLIGKLTSLQLQHLFMILASPRYVDRVTEFLQQKLKQSQLLALKKELMVQKQQEALEEQAALEPKLDLLLEKTKELQKLIEADISKRYSGRPVNLMGTSL [chain 1 W269A, chain 1 W294A, chain 1 W312A], which response is on record?
**A.** ~0.25 normalized fluorescence
